The values that follow come from paper PMC4403245.

A word on the Kd: it is a measure of binding affinity in units of concentration. Read a high Kd as weaker binding. Broadly, the koff is a measure of how fast the partners let go of each other. Low readings indicate slow dissociation, high ones fast dissociation. In general, kon refers to the rate constant with which the complex forms. Higher therefore signals fast association.

In this assay the target is GST-tagged KAHRP fragment K1D (Plasmodium falciparum) (UniProt P06719). The assay can be described thus: SPR. (SPR reads the build-up and loss of mass on a sensor chip optically.)
Chain of UniProt P06719 (P06719 35-657): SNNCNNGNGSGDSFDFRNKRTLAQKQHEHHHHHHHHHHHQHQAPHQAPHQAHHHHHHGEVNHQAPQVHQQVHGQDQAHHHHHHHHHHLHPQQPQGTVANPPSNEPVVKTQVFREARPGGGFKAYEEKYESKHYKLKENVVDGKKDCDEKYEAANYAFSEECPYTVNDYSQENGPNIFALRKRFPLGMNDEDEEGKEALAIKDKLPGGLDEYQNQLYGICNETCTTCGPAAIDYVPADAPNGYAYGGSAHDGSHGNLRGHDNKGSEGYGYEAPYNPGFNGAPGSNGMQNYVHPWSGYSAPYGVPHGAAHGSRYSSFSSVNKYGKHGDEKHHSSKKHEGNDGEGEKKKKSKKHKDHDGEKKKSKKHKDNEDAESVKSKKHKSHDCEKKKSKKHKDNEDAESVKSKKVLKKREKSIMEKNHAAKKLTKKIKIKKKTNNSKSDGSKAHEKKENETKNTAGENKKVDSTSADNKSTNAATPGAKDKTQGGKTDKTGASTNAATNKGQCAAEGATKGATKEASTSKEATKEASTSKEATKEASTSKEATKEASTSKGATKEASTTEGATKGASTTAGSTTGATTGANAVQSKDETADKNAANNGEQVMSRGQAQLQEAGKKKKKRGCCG

“MBP-tagged D3 subdomain of the ankyrin R membrane-binding domain (from UniProt P16157 404-601) (domain or fragment)” came in with a dissociation constant Kd of 46 nM, a koff of 0.00137 s⁻¹ and a kon of 29900 M⁻¹ s⁻¹.

In turn, “MBP-tagged ankyrin R N-terminal 89 kDa membrane binding domain (from UniProt P16157 1-827) (domain or fragment)” registered a Kd of 38 nM, a koff of 0.00161 s⁻¹ and a kon of 42800 M⁻¹ s⁻¹.
